Test results published in patent US20100015654A1 (INSTITUT DE RECHERCHES CLINIQUES DE MONTREAL I R C M, published 2010).

Experiments:
mouse CD84 = biological target: T1, mouse CD84 (mouse, UniProt Q18PI6 22-329); experiment: co-immunoprecipitation from IL-2-activated mouse NK cells, anti-CD84 immunoblot
T1 construct: whole, on cells; Endogenous protein in NK cell lysates
T1 sequence (looked up): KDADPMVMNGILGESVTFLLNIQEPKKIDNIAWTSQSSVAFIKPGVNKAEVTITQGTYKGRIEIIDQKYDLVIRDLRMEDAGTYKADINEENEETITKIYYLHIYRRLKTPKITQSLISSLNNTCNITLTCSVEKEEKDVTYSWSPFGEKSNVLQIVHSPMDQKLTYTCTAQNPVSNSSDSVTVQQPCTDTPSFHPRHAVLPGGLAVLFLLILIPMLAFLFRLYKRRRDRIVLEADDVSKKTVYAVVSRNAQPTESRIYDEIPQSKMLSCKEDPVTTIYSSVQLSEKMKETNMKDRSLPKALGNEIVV
From the text: (§1) Association of phosphotyrosine-containing proteins with SAP-related adaptors in mouse NK cells. The indicated SAP-related adaptors were immunoprecipitated from IL-2-activated mouse NK cells, resolved in 8% gels and probed by immunoblotting with anti-phosphotyrosine (P.tyr). The anti-EAT-2 MAbs used for immunoprecipitation react with both EAT-2 and ERT. Anti-CD4 MAb GK1.5 was used as control antibody. IgH: heavy chain of IgG. Efficient immunoprecipitation of the SAP-related adaptors was verified by probing parallel immunoprecipitates with anti-EAT-2/ERT and anti-SAP (data not shown). b. Association of 2B4 with SAP-related adaptors in NK cells. Immunoprecipitates of SAP family adaptors were reprobed by immunoblotting with anti-2B4 (top panels), anti-CRACC (middle panels) and anti-CD84 (bottom panels). The migration of the various SLAM-related receptors was verified by immunoblotting of total cell lysates with the specified antibodies (lane 5).
(§2) Mouse NK cells express three SLAM-related receptors, 2B4, CRACC and CD84, that have apparent molecular masses between 60 and 70 kDa (our unpublished results). To determine if the 70 kDa-tyrosine phosphorylated protein associated with SAP family adaptors was any of these SLAM-related receptors, immunoprecipitates of SAP-related adaptors were probed by immunoblotting with antibodies against each of these SLAM family members (FIG. 5b). […]

mouse CD16 = biological target: T2, mouse CD16 (mouse, UniProt P08508 31-261); experiment: co-immunoprecipitation from IL-2-activated mouse NK cells (data not shown)
T2 construct: whole, on cells; Endogenous protein in NK cell lysates
T2 sequence (looked up): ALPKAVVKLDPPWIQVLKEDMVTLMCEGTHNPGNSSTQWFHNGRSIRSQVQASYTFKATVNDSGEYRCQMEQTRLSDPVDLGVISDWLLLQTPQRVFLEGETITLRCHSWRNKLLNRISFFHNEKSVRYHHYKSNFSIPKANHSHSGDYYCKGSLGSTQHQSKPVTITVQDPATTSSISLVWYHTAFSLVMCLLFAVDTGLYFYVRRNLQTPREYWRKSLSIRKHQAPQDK

mouse CRACC = biological target: T3, mouse CRACC (mouse, UniProt Q8BHK6 23-333); experiment: co-immunoprecipitation from IL-2-activated mouse NK cells, anti-CRACC immunoblot
T3 construct: whole, on cells; Endogenous protein in NK cell lysates
T3 sequence (looked up): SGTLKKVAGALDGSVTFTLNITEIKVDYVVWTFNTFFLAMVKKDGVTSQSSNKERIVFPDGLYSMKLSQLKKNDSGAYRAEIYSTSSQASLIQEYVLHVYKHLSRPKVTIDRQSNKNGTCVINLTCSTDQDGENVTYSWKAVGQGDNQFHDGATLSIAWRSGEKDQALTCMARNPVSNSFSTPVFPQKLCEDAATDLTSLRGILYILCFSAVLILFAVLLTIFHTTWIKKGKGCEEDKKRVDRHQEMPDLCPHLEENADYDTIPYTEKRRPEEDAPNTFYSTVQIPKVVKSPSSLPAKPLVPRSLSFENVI
From the text: as §1, §2

Measured: binding result

B1: mouse SAP (other, UniProt O88890 1-126, looked up)
chain: MDAVTVYHGKISRETGEKLLLATGLDGSYLLRDSESVPGVYCLCVLYQGYIYTYRVSQTETGSWSAETAPGVHKRFFRKVKNLISAFQKPDQGIVTPLQYPVEKSSGRGPQAPTGRRDSDICLNAP
notes: Intracellular adaptor made of an SH2 domain and a short tail
no binding: all assays above
